The text below walks through data of patent publication US20170298096A1 (CANIMGUIDE THERAPEUTICS, published 2017).

T1: His-tagged P3028 peptide (PGE73) (human)
T1 construct: albumin-derived peptide, in solution at 0.5 ug/mL; not shown: His-tag
T1 peptide: VFDEFKPLVEEPQNLIK

The assay deals with T1, His-tagged P3028 peptide (PGE73). As to the kind of experiment: PEPSCAN ELISA, peptide on card.
Procedure: After washing, the peroxidase substrate 2,2′-azine-di-3-ethylbenzthiazoline sulfonate (ABTS) and 2 μL of 3% H2O2 were added. The binding capacity of the mAb was measured as a color development at 405 nm (optical density, OD405). The color development was quantified with a charge-coupled device (CCD)—camera and an image processing system.
The OD405-values obtained by a CCD-camera was considered as raw data values (“rampo values,” “rampo units,” or “rampo scores”). […] First the CCD-camera made a picture of the card before peroxidase coloring and then again a picture after the peroxidase coloring. […] These values were copied into an excel file and labeled as a raw data file. One follow-up manipulation was allowed. Sometimes a well can contain an air-bubble resulting in a false-positive value. If manual inspection of the cards detect an air-bubble the value are set to 0 for that well.
On to KKLDWFFVKLSLFTER [SEQ ID NO: 311 KKLDWFFVKLSLFTER], for which the “RAMPO Score” value is 418.

For the molecule KKLDTFFVKLSLQTER [SEQ ID NO: 370 KKLDTFFVKLSLQTER], the “RAMPO Score” value came to 1140.

For the molecule KKLDTFFFKLSLFTER [SEQ ID NO: 326 KKLDTFFFKLSLFTER], the “RAMPO Score” value was 358.

As for KKLDTFFVKLSLRTER [SEQ ID NO: 371 KKLDTFFVKLSLRTER], the “RAMPO Score” value was found to be 502.

On to KKLDTFFVKLSLITER [SEQ ID NO: 365 KKLDTFFVKLSLITER], for which the “RAMPO Score” value was determined as 468.

With KKLDTFFVKLSNFTER [SEQ ID NO: 354 KKLDTFFVKLSNFTER], the “RAMPO Score” value was 462.

Regarding KKLDTFFVKLSLCTER [SEQ ID NO: 362 KKLDTFFVKLSLCTER], the “RAMPO Score” value turned out to be 400.

Turning to KKLDTAFVKLSLFTER [SEQ ID NO: 313 KKLDTAFVKLSLFTER], the “RAMPO Score” value is 575.

Consider KKLDTFQVKLSLFTER [SEQ ID NO: 322 KKLDTFQVKLSLFTER], for which the “RAMPO Score” value turned out to be 511.

Consider KKLDTFTVKLSLFTER [SEQ ID NO: 324 KKLDTFTVKLSLFTER], for which the “RAMPO Score” value was 517.

Regarding KKLDTFFVKLSLSTER [SEQ ID NO: 372 KKLDTFFVKLSLSTER], the “RAMPO Score” value was found to be 635.

KKLDTPFVKLSLFTER [SEQ ID NO: 317 KKLDTPFVKLSLFTER]: the “RAMPO Score” value came out at 497.

For KKLDYFFVKLSLFTER [SEQ ID NO: 312 KKLDYFFVKLSLFTER], the “RAMPO Score” value came to 425.

Consider KKLDTFFVKLSLATER [SEQ ID NO: 361 KKLDTFFVKLSLATER], for which the “RAMPO Score” value amounted to 525.

KKLDTFFVKASLFTER [SEQ ID NO: 332 KKLDTFFVKASLFTER]: the “RAMPO Score” value was 426.

On to KKLDTFFVKLSQFTER [SEQ ID NO: 355 KKLDTFFVKLSQFTER], for which the “RAMPO Score” value came to 651.

Regarding KKLDTFFVKLSLHTER [SEQ ID NO: 364 KKLDTFFVKLSLHTER], the “RAMPO Score” value worked out at 1050.

On to KKLDTFFVKLNLFTER [SEQ ID NO: 347 KKLDTFFVKLNLFTER], for which the “RAMPO Score” value worked out at 451.

In the case of KKLDTFFVKLSLMTER (also called 30677) [SEQ ID NO: 367 KKLDTFFVKLSLMTER], the “RAMPO Score” value came to 1190.

Consider KKLDTFMVKLSLFTER [SEQ ID NO: 321 KKLDTFMVKLSLFTER], for which the “RAMPO Score” value came to 712.

As for KKLDTFFVKNSLFTER [SEQ ID NO: 337 KKLDTFFVKNSLFTER], the “RAMPO Score” value is 365.

Turning to KKLDTFFVKYSLFTER [SEQ ID NO: 344 KKLDTFFVKYSLFTER], the “RAMPO Score” value stood at 382.

In the case of KKLDTFFVKLSRFTER [SEQ ID NO: 356 KKLDTFFVKLSRFTER], the “RAMPO Score” value amounted to 483.

For KKLDTFFVKLSLGTER [SEQ ID NO: 363 KKLDTFFVKLSLGTER], the “RAMPO Score” value came out at 531.

Turning to KKLDTFFGKLSLFTER [SEQ ID NO: 327 KKLDTFFGKLSLFTER], the “RAMPO Score” value came to 379.

On to KKLDTFFVKLHLFTER [SEQ ID NO: 345 KKLDTFFVKLHLFTER], for which the “RAMPO Score” value was found to be 535.

KKLDTIFVKLSLFTER [SEQ ID NO: 314 KKLDTIFVKLSLFTER]: the “RAMPO Score” value is 466.

Take KKLDTFFVKLSLWTER [SEQ ID NO: 375 KKLDTFFVKLSLWTER]: the “RAMPO Score” value is 430.

In the case of KKLDTVFVKLSLFTER [SEQ ID NO: 319 KKLDTVFVKLSLFTER], the “RAMPO Score” value came out at 547.

Consider KKLDTFFVKLSMFTER [SEQ ID NO: 353 KKLDTFFVKLSMFTER], for which the “RAMPO Score” value was determined as 499.

For the molecule KKLDTFFVKLSWFTER [SEQ ID NO: 360 KKLDTFFVKLSWFTER], the “RAMPO Score” value is 409.

For KKLDTFFVKQSLFTER [SEQ ID NO: 339 KKLDTFFVKQSLFTER], the “RAMPO Score” value worked out at 470.

Consider KKLDTFSVKLSLFTER [SEQ ID NO: 323 KKLDTFSVKLSLFTER], for which the “RAMPO Score” value was 700.

Regarding KKLDTFFVKTSLFTER [SEQ ID NO: 342 KKLDTFFVKTSLFTER], the “RAMPO Score” value was determined as 399.

On to KKLDTFFVKLSAFTER [SEQ ID NO: 350 KKLDTFFVKLSAFTER], for which the “RAMPO Score” value stood at 462.

As for KKLDTFFVKLTLFTER [SEQ ID NO: 349 KKLDTFFVKLTLFTER], the “RAMPO Score” value is 520.

As to KKLDTFFVKSSLFTER [SEQ ID NO: 341 KKLDTFFVKSSLFTER], the “RAMPO Score” value is 351.

On to KKLDTFFVKVSLFTER [SEQ ID NO: 343 KKLDTFFVKVSLFTER], for which the “RAMPO Score” value is 658.

Take KKLDTFFVKLMLFTER [SEQ ID NO: 346 KKLDTFFVKLMLFTER]: the “RAMPO Score” value was 744.

On to KKLDTFFVKLSLPTER [SEQ ID NO: 369 KKLDTFFVKLSLPTER], for which the “RAMPO Score” value came out at 696.

Regarding KKLDTFFVKLSLVTER [SEQ ID NO: 374 KKLDTFFVKLSLVTER], the “RAMPO Score” value came out at 446.

Turning to KKLDTFFRKLSLFTER [SEQ ID NO: 330 KKLDTFFRKLSLFTER], the “RAMPO Score” value stood at 365.

Turning to KKLDTFFVKFSLFTER [SEQ ID NO: 333 KKLDTFFVKFSLFTER], the “RAMPO Score” value stood at 403.

As to KKLDTMFVKLSLFTER [SEQ ID NO: 315 KKLDTMFVKLSLFTER], the “RAMPO Score” value turned out to be 467.

As to KKLDTFFVKGSLFTER [SEQ ID NO: 334 KKLDTFFVKGSLFTER], the “RAMPO Score” value amounted to 495.

As for KKLDTFFVRLSLFTER [SEQ ID NO: 331 KKLDTFFVRLSLFTER], the “RAMPO Score” value stood at 374.

KKLDTFLVKLSLFTER [SEQ ID NO: 320 KKLDTFLVKLSLFTER]: the “RAMPO Score” value was determined as 517.

For KKLDTFFVKLSSFTER [SEQ ID NO: 357 KKLDTFFVKLSSFTER], the “RAMPO Score” value turned out to be 478.

In the case of KKLDTFFVKMSLFTER [SEQ ID NO: 336 KKLDTFFVKMSLFTER], the “RAMPO Score” value is 460.

KKLDTFFLKLSLFTER [SEQ ID NO: 328 KKLDTFFLKLSLFTER]: the “RAMPO Score” value is 411.

As to KKLDTFFVKLSTFTER [SEQ ID NO: 358 KKLDTFFVKLSTFTER], the “RAMPO Score” value amounted to 437.

With KKLDTFFVKLSLTTER [SEQ ID NO: 373 KKLDTFFVKLSLTTER], the “RAMPO Score” value is 494.

KKLDTFFVKLSLNTER [SEQ ID NO: 368 KKLDTFFVKLSLNTER]: the “RAMPO Score” value is 862.

With KKLDTFFVKLSIFTER [SEQ ID NO: 352 KKLDTFFVKLSIFTER], the “RAMPO Score” value is 456.

For the molecule KKLDTFVVKLSLFTER [SEQ ID NO: 325 KKLDTFVVKLSLFTER], the “RAMPO Score” value came out at 527.

Regarding KKLDTFFVKLQLFTER (also called 30678) [SEQ ID NO: 348 KKLDTFFVKLQLFTER], the “RAMPO Score” value came to 768.

Take KKLDTFFVKLSVFTER [SEQ ID NO: 359 KKLDTFFVKLSVFTER]: the “RAMPO Score” value came to 545.

KKLDTFFVKISLFTER [SEQ ID NO: 335 KKLDTFFVKISLFTER]: the “RAMPO Score” value is 415.

For KKLDTFFVKLSLLTER [SEQ ID NO: 366 KKLDTFFVKLSLLTER], the “RAMPO Score” value came to 448.

KKLDTFFVKRSLFTER [SEQ ID NO: 340 KKLDTFFVKRSLFTER]: the “RAMPO Score” value was 439.

KKLDTNFVKLSLFTER [SEQ ID NO: 316 KKLDTNFVKLSLFTER]: the “RAMPO Score” value amounted to 446.

As to KKLDTFFPKLSLFTER (also called 32251) [SEQ ID NO: 329 KKLDTFFPKLSLFTER], the “RAMPO Score” value amounted to 456.

On to KKLDTTFVKLSLFTER [SEQ ID NO: 318 KKLDTTFVKLSLFTER], for which the “RAMPO Score” value amounted to 481.

For the molecule KKLDTFFVKLSHFTER [SEQ ID NO: 351 KKLDTFFVKLSHFTER], the “RAMPO Score” value stood at 460.

For KKLDTFFVKPSLFTER [SEQ ID NO: 338 KKLDTFFVKPSLFTER], the “RAMPO Score” value turned out to be 436.
